Test results published in the supplement of paper PMC10201428.
± gives the standard deviation of the averaged measurements.

Columns and labels:
[1] = test system: VchCAST RNA-guided transposition machinery (E. coli BL21(DE3) host, lacZ target); assay: relative integration efficiency (T-LR orientation) vs wild-type transposon end (log2 (normalized fold change)); transposon end mutated: left end; higher = more efficient transposition
How it was run: (§1)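 A T7-driven effector plasmid encoding a CRISPR array, tniQ-cas8-cas7-cas6 and tnsA-tnsB-tnsC was co-transformed into E. coli BL21(DE3) together with a pUC57 mini-transposon donor holding barcoded pools of 1549 left-end or 1849 right-end variants. Transformants were plated with 0.1 mM IPTG at 37°C for 18 h. Illumina sequencing of PCR-amplified input plasmids and genomic integration junctions gave barcode abundances, and relative integration efficiency is their output/input fold change, normalised to reference barcodes and log-transformed.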

[2] = test system: VchCAST RNA-guided transposition machinery (E. coli BL21(DE3) host, lacZ target); assay: relative integration efficiency (T-RL orientation) vs wild-type transposon end (log2 (normalized fold change)); transposon end mutated: left end; higher = more efficient transposition
How it was run: as §1

AATGTTGTTGATGCAACCATAAAGTGATATTTATTGTGAGCGGATAACAATTGTGAGCGGATAACAACAACCATATATTGATATCTCACAAAACAACCATAAGTTGATATTTTTGTGAATCGAGTATTTCAGCAAAACTACTGCAGTAAGAA
relative integration efficiency (log2) [1]: -6.162 ± 0.037 | relative integration efficiency (log2) [2]: -6.71 ± 0.35

AATGTTGTTGATGCAACCATAAAGTGATATTTATTTATGGCTAGCTCAGTCCTAGGTACAATGCTAGCAACCATATATTGATATCTCACAAAACAACCATAAGTTGATATTTTTGTGAATCGAGTATTTCAGCAAAACTACTGCAGTAAGAA
relative integration efficiency (log2) [1]: -2.71 ± 0.58 | relative integration efficiency (log2) [2]: -4.66 ± 0.6

AATGTTGTTGATGCAACCATAAAGTGATATTTCCGCCGGCGGGCGCCGACTACCAGGCCAACACCCCACCAACGCGCGGTCGCGAGACACCCCACCAACGCCTGGTCGCGGGGGTGTCCGATCTGATTTCAGCAAAACTACTGCAGTAAGAA
relative integration efficiency (log2) [1]: -5 ± 1.2 | relative integration efficiency (log2) [2]: -6.65 ± 1.1

AATGTTGTTGATGCAACCATAAAGTGATATTTGCTAGCACTATACCTAGGACTGAGCTAGCCGTCAACAACCATATATTGATATCTCACAAAACAACCATAAGTTGATATTTTTGTGAATCGAGTATTTCAGCAAAACTACTGCAGTAAGAA
relative integration efficiency (log2) [1]: < -10 | relative integration efficiency (log2) [2]: -5.87 ± 1

AATGTTGTTGATGCAACCATAAAGTGATATTTGCTAGCATTGTACCTAGGACTGAGCTAGCCATAAACAACCATATATTGATATCTCACAAAACAACCATAAGTTGATATTTTTGTGAATCGAGTATTTCAGCAAAACTACTGCAGTAAGAA
relative integration efficiency (log2) [1]: -4.41 ± 1.3 | relative integration efficiency (log2) [2]: -3.5 ± 0.79

AATGTTGTTGATGCAACCATAAAGTGATCGGGCATAATTATTTATAATCAGCAACTTAACCACAAAACAACCATATATTGATCGAGAACAAAACAACCATAAGTTGATCGGGGTGTGAATCGAGTATTTCAGCAAAACTACTGCAGTAAGAA
relative integration efficiency (log2) [1]: -3.33 ± 1.4 | relative integration efficiency (log2) [2]: -3.68 ± 1.3

AATGTTGTTGATGCAACCATAAAGTGATCGGGCCGCCGGCGGGCGCCGACTACCAGGCCAACACCCCACCAACGCGCGGTCGCGAGACACCCCACCAACGCCTGGTCGCGGGGGTGTCCGATCTGATTTCAGCAAAACTACTGCAGTAAGAA
relative integration efficiency (log2) [1]: -7.44 ± 0.81 | relative integration efficiency (log2) [2]: -8.26 ± 1.7

AATGTTGTTGATGCAACCATAAAGTGATTAAATATAATTATTTATAATCAGCAACTTAACCACAAAACAACCATATATTGATTAGAGACAAAACAACCATAAGTTGATTAAAATGTGAATCGAGTATTTCAGCAAAACTACTGCAGTAAGAA
relative integration efficiency (log2) [1]: -1.1 ± 0.76 | relative integration efficiency (log2) [2]: -2.17 ± 0.87

AATGTTGTTGATGCAACCATAAAGTGTATAAATATAATTATTTATAATCAGCAACTTAACCACAAAACAACCATATATTGTATAGAGACAAAACAACCATAAGTTGTATAAAATGTGAATCGAGTATTTCAGCAAAACTACTGCAGTAAGAA
relative integration efficiency (log2) [1]: -3.62 ± 1.7 | relative integration efficiency (log2) [2]: -4.69 ± 1.2

AATGTTGTTGATGCAACCATAACTGTCGCGGGCCGCCGGCGGGCGCCGACTACCAGGCCAACACCCCACCAACGCGCGGTCGCGAGACACCCCACCAACGCCTGGTCGCGGGGGTGTCCGATCTGATTTCAGCAAAACTACTGCAGTAAGAA
relative integration efficiency (log2) [1]: < -10 | relative integration efficiency (log2) [2]: < -10

AATGTTGTTGATGCAACCATAAGTTGATATTTTATAATTATTTATAATCAGCAACTTAACCACAAAACAACCATAAAATGATAATTAACAAAAGTTGGTATTCAACTATAAAATGTGAATCGAGTATTTCAGCAAAACTACTGCAGTAAGAA
relative integration efficiency (log2) [1]: -0.577 ± 0.68 | relative integration efficiency (log2) [2]: -2.57 ± 1.1

AATGTTGTTGATGCAACCATAAGTTGATATTTTATAATTATTTATAATCAGCAACTTAACCACAAAACAACCATAAAGTGATATTTAACAAAAGTTGGTATTCAACTATAAAATGTGAATCGAGTATTTCAGCAAAACTACTGCAGTAAGAA
relative integration efficiency (log2) [1]: -1.03 ± 1.1 | relative integration efficiency (log2) [2]: -2.4 ± 0.96

AATGTTGTTGATGCAACCATAAGTTGATATTTTATAATTATTTATAATCAGCAACTTAACCACAAAACAACCATAAGTTGATATTTTACAAAAGTTGGTATTCAACTATAAAATGTGAATCGAGTATTTCAGCAAAACTACTGCAGTAAGAA
relative integration efficiency (log2) [1]: -1.03 ± 2.3 | relative integration efficiency (log2) [2]: -3.19 ± 1.4

AATGTTGTTGATGCAACCATAAGTTGATATTTTATAATTATTTATAATCAGCAACTTAACCACAAAACAACCATATATTGATATCTCACAAAAGTTGGTATTCAACTATAAAATGTGAATCGAGTATTTCAGCAAAACTACTGCAGTAAGAA
relative integration efficiency (log2) [1]: -1.32 ± 0.89 | relative integration efficiency (log2) [2]: -2.64 ± 1.1

AATGTTGTTGATGCAACCATAAGTTGATATTTTATAATTATTTATAATCAGCAACTTAACCACAAAACACCCATAAATTGATAATTAACAAAAGTTGGTATTCAACTATAAAATGTGAATCGAGTATTTCAGCAAAACTACTGCAGTAAGAA
relative integration efficiency (log2) [1]: -0.777 ± 0.9 | relative integration efficiency (log2) [2]: -2.37 ± 1.2

AATGTTGTTGATGCAACCATAAGTTGATATTTTATAATTATTTATAATCAGCAACTTAACCACAAAACACCCATAAATTGATATTGCACAAAAGTTGGTATTCAACTATAAAATGTGAATCGAGTATTTCAGCAAAACTACTGCAGTAAGAA
relative integration efficiency (log2) [1]: -1.01 ± 1.3 | relative integration efficiency (log2) [2]: -3.48 ± 1.3

AATGTTGTTGATGCAACCATACCTGTCGCGGGCCGCCGGCGGGCGCCGACTACCAGGCCAACACCCCACCAACGCGCGGTCGCGAGACACCCCACCAACGCCTGGTCGCGGGGGTGTCCGATCTGATTTCAGCAAAACTACTGCAGTAAGAA
relative integration efficiency (log2) [1]: < -10 | relative integration efficiency (log2) [2]: < -10

AATGTTGTTGATGCAACCATATATTGATATCTCATAATTATTTATAATCAGCAACTTAACCACAAAACAACCATAAAATGATAATTAACAAAAGTTGGTATTCAACTATAAAATGTGAATCGAGTATTTCAGCAAAACTACTGCAGTAAGAA
relative integration efficiency (log2) [1]: -1.34 ± 1 | relative integration efficiency (log2) [2]: -3.2 ± 1.5

AATGTTGTTGATGCAACCATATATTGATATCTCATAATTATTTATAATCAGCAACTTAACCACAAAACAACCATAAAGTGATATTTAACAAAAGTTGGTATTCAACTATAAAATGTGAATCGAGTATTTCAGCAAAACTACTGCAGTAAGAA
relative integration efficiency (log2) [1]: -1.75 ± 1.5 | relative integration efficiency (log2) [2]: -3.25 ± 1.2

AATGTTGTTGATGCAACCATATATTGATATCTCATAATTATTTATAATCAGCAACTTAACCACAAAACAACCATAAGTTGATATTTTACAAAAGTTGGTATTCAACTATAAAATGTGAATCGAGTATTTCAGCAAAACTACTGCAGTAAGAA
relative integration efficiency (log2) [1]: -1.84 ± 0.76 | relative integration efficiency (log2) [2]: -3.58 ± 1.4

AATGTTGTTGATGCAACCATATATTGATATCTCATAATTATTTATAATCAGCAACTTAACCACAAAACAACCATATATTGATATCTCACAAAAGTTGGTATTCAACTATAAAATGTGAATCGAGTATTTCAGCAAAACTACTGCAGTAAGAA
relative integration efficiency (log2) [1]: -2.34 ± 0.9 | relative integration efficiency (log2) [2]: -3.5 ± 1.4

AATGTTGTTGATGCAACCATATATTGATATCTCATAATTATTTATAATCAGCAACTTAACCACAAAACACCCATAAATTGATAATTAACAAAAGTTGGTATTCAACTATAAAATGTGAATCGAGTATTTCAGCAAAACTACTGCAGTAAGAA
relative integration efficiency (log2) [1]: -1.08 ± 1.5 | relative integration efficiency (log2) [2]: -3.56 ± 1.4

AATGTTGTTGATGCAACCATATATTGATATCTCATAATTATTTATAATCAGCAACTTAACCACAAAACACCCATAAATTGATATTGCACAAAAGTTGGTATTCAACTATAAAATGTGAATCGAGTATTTCAGCAAAACTACTGCAGTAAGAA
relative integration efficiency (log2) [1]: -2.2 ± 1.6 | relative integration efficiency (log2) [2]: -4.07 ± 1.2

AATGTTGTTGATGCAACCATATTCACATATTTAATAATTATTTATAATCAGCAACTTAACCACAAAACAACCATAATAACATATCTCACAAAACAACCATATCAACATATTTTTGTGAATCGAGTATTTCAGCAAAACTACTGCAGTAAGAA
relative integration efficiency (log2) [1]: < -10 | relative integration efficiency (log2) [2]: -7.41 ± 0.33

AATGTTGTTGATGCAACCATCCCTGTCGCGGGCCGCCGGCGGGCGCCGACTACCAGGCCAACACCCCACCAACGCGCGGTCGCGAGACACCCCACCAACGCCTGGTCGCGGGGGTGTCCGATCTGATTTCAGCAAAACTACTGCAGTAAGAA
relative integration efficiency (log2) [1]: -9.26 ± 0.31 | relative integration efficiency (log2) [2]: < -10

AATGTTGTTGATGCACCCATAAATTGATAATTAATAATTATTTATAATCAGCAACTTAACCACAAAACAACCATAAAATGATAATTAACAAAAGTTGGTATTCAACTATAAAATGTGAATCGAGTATTTCAGCAAAACTACTGCAGTAAGAA
relative integration efficiency (log2) [1]: -0.947 ± 1.4 | relative integration efficiency (log2) [2]: -2.86 ± 1.1

AATGTTGTTGATGCACCCATAAATTGATAATTAATAATTATTTATAATCAGCAACTTAACCACAAAACAACCATAAAGTGATATTTAACAAAAGTTGGTATTCAACTATAAAATGTGAATCGAGTATTTCAGCAAAACTACTGCAGTAAGAA
relative integration efficiency (log2) [1]: -1.55 ± 1.7 | relative integration efficiency (log2) [2]: -2.92 ± 1.1

AATGTTGTTGATGCACCCATAAATTGATAATTAATAATTATTTATAATCAGCAACTTAACCACAAAACAACCATAAGTTGATATTTTACAAAAGTTGGTATTCAACTATAAAATGTGAATCGAGTATTTCAGCAAAACTACTGCAGTAAGAA
relative integration efficiency (log2) [1]: -1.17 ± 0.98 | relative integration efficiency (log2) [2]: -3.01 ± 1.1

AATGTTGTTGATGCACCCATAAATTGATAATTAATAATTATTTATAATCAGCAACTTAACCACAAAACAACCATATATTGATATCTCACAAAAGTTGGTATTCAACTATAAAATGTGAATCGAGTATTTCAGCAAAACTACTGCAGTAAGAA
relative integration efficiency (log2) [1]: -1.82 ± 1.9 | relative integration efficiency (log2) [2]: -2.76 ± 1.1

AATGTTGTTGATGCACCCATAAATTGATAATTAATAATTATTTATAATCAGCAACTTAACCACAAAACACCCATAAATTGATAATTAACAAAAGTTGGTATTCAACTATAAAATGTGAATCGAGTATTTCAGCAAAACTACTGCAGTAAGAA
relative integration efficiency (log2) [1]: -1.11 ± 1.5 | relative integration efficiency (log2) [2]: -2.87 ± 0.73

AATGTTGTTGATGCACCCATAAATTGATAATTAATAATTATTTATAATCAGCAACTTAACCACAAAACACCCATAAATTGATATTGCACAAAAGTTGGTATTCAACTATAAAATGTGAATCGAGTATTTCAGCAAAACTACTGCAGTAAGAA
relative integration efficiency (log2) [1]: -1.72 ± 0.67 | relative integration efficiency (log2) [2]: -3.68 ± 1.4
